These results are taken from the nanobody polyreactivity screen of Harvey et al. (2022).

A short description of the data set: yeast display, Sf9 membrane polyspecificity reagent, FACS + sequencing; frameworks hold sequencing errors. Put shortly: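 Nanobodies came from a synthetic yeast display library in Saccharomyces cerevisiae BJ5465, induced with galactose for 36–48 hours and stained for 1 hour at 4 °C with 10% biotinylated, detergent-solubilized Sf9 membrane reagent. Cells were enriched on streptavidin microbeads and then FACS-sorted, with low and high (top ~1%) gates set on anti-HA fluorescence for expression and streptavidin fluorescence for reagent binding. Each polyreactivity label reflects the gate a clone came from. Genes were amplified by colony PCR, sequenced by MiSeq 2 × 250 and filtered by CDR length.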
Take “QVQLVESGGGLVQAGGSLRLSCAASGITLAWYAMGWYRQAPGKERELVAAINSGGSTYYADSVKGRFTISRDNAKNTVYLQMNSLKPEDTAVYYCKTDDDSSSTGYYSWGQGTQVTVSS”: the “polyreactivity (PSR sort gate)” value is “low polyreactivity”.
The value for “QVQLVESGGGLVQAGGSLRLSCAASGLTFYIYAMGWSRQAPGKERELVAGISWIGGRTYYADSVKGRFTISRDNAKNTVYLQLNSLKPEDTAVYYCIAYLSYTSRGRYYKYDYWGQGTQVTVSS” was “high polyreactivity”.
Consider “QVQLVESGGGLVQERVSLRLSCAASGFIFLFNAMGWNRQAPGKERELVAAISDDGSTYYADSLKGRFTISRDNAKNTVYLQMTSLKTEDTAVYYCAAEYYYDRYTLDYWGQGTQVTVSS”, for which the “polyreactivity (PSR sort gate)” value is reported as “high polyreactivity”.
For the sequence “QVQLVESGGGLVQAGGSLRLSCAASGSTFAQNAMGWYRQAPGKERELVAAISRRGTITNYADSVKGRFTISRDNAKNTVYLQMNSLKPEDTAVYYCAKEGTWTGGSDNYWGQGTQVTVSS”, the “polyreactivity (PSR sort gate)” value is reported as “high polyreactivity”.
On to “QVQLVESGGGLVQAGGSLRVSCAASGFIFLYYAMGWYRQAPGKERELVADISRGADTKYADSVKGRFTISRDNAKNTVYLQMNSLKPEDTAVYYCATDITTFWFPYPGVELGYWGQGTQVTVSS”, for which the “polyreactivity (PSR sort gate)” value is “low polyreactivity”.
In the case of “QVQLVESGGGLVQAGGSLRLSCAASGRIFARYAMGWYRQAPGKERELVAAITVSGDNTYYADSVKGRFTISRDNAKNTVYLQMNSLKPEDTAVYYCAVRAVLLFGFFEYDYWGQGTQVTVSS”, the “polyreactivity (PSR sort gate)” value is on record as “low polyreactivity”.
For “QVQLVESVGGLVQAGGSLRLSCAASGSTFPVYVMGWYRQAPGKERELVAAITRIGGSTYYADSVKGRFTISRDNAKNTVYLQMNSLKPEDTAVYYCAAGGTARDDSWGQGTQVTVSS”, the “polyreactivity (PSR sort gate)” value is “low polyreactivity”.
As for “QVQLVESGGGLVQAGGSLRLSCAASGSIFDYNAMGWYRQAPGKERELVAAISGSGVRTYYADSVKGRFTISRDNAKNTVYLQMNSLKPEDTAVYYCAAAVGRPRREYDYWGQGTQVTVSS”, the “polyreactivity (PSR sort gate)” value is “high polyreactivity”.
“QVQLVESGGGLVQAGGSLRLSCAASGLTFYYYDMGWYRQAPGKERELVAAITSGGSSTYYADSVKGRITISRDNAKNTVYLQMNSLKPEDTAVYYCNADSPYIPYIYDYWGQGTQVTVSS”: the “polyreactivity (PSR sort gate)” value was “low polyreactivity”.
As for “QVQLVESGGGLVQAGGSLRLSCAATGYTFFFYAMGWYRQAPGKEREFVAASTWRGDSTYYADSVKGRFTISRDNAKNTVYLQMNSLKPEDTAVYYCAADPGFTWSRRMDYWGQGTQVTVSS”, the “polyreactivity (PSR sort gate)” value is recorded as “low polyreactivity”.
As for “QVQLVESGGGLVQAGGRLRLSCAASGSTFSLNTMGWYRQAPGKERELFAAIRWRSGSTYYADSVKGRFTISRDNAKNTVYLHKNRLKPEDNAVYYCAVTARVTFLLRDGGRAEFDYWGQGTQVTVSS”, the “polyreactivity (PSR sort gate)” value is “low polyreactivity”.
Take “QVQLVESVGGLVQAGGSLLLSCAAYGDISRYNTMGWYRQAPGKERELVPAITWSGGSTYADSVKGRFTISRDNAKNTVYLQMNSLKPEDTAVYYCAAGAYIWDNYSYRWYDYLGQGTQVTVSS”: the “polyreactivity (PSR sort gate)” value was “high polyreactivity”.
Take “QLQLVDSGGGVVQAGGSLRLSCAASGSTFSRYAMGWYRQAPGKEMELVAAISTRGGSTRYADSVKGRFTISRDNAKNTVYLQMYCRKPEDTAVYYGAALGQGRTSATSFVDYEYWGQGTQVTVSS”: the “polyreactivity (PSR sort gate)” value was “high polyreactivity”.
“QVQLVESGGGLVQAGGSLRLSCAASGLTFWAYAMGWYRQEPGKEREFVAAISWSVDSTYYADSVKGRFTISRDNAKNTVYLQMNSLKPEDTAVYYCAAEWYYVYIAPYRYYYRGQGTQVTVSS”: the “polyreactivity (PSR sort gate)” value is on record as “low polyreactivity”.
Turning to “QVQLVESGGGLVQAVGSLRLSCAASGFIFYRNVMGWYREAPGKERELVAAISGSGGRTYYADSVKGRFTISRDNAKNTVYLQLNSLKPEDTAVYDCAADASLEGDYWGQGTQVTVSS”, the “polyreactivity (PSR sort gate)” value is “high polyreactivity”.
For the sequence “QVQLVESGGGLVQAGGSLRLSCAASGRISRTNAMGWYRQAPGKERELVATITRGGNTNYADSVKGRFTISRDNAKNTVYLPMNSLKPEDTAVYYCAALGRYLRTYRGYVWQFDSWGQGTKVTVSS”, the “polyreactivity (PSR sort gate)” value is on record as “high polyreactivity”.
Consider “QVQLVESGGGLVQAGGSLRLSCAASGITFYKYVMGWYRQAPGKERELVAAITYSGGSTYYADSVKGRFTISRDYAKNTVYLQMYSLKPEDTAVYYCAKRRPALRWIYYYWGQGTQVTVSS”, for which the “polyreactivity (PSR sort gate)” value was “high polyreactivity”.
“QVQLVESGGGLVQAGGSLRLSCAASGGIFRGNAMGWYRQAPGKERELVAAISSSGGSTYYADSVKGRFTISRDNAKNTVYLQMNSLKPEDTAVYYCAATRYSTRFGARGYWGQGTQVTVSS”: the “polyreactivity (PSR sort gate)” value was “high polyreactivity”.
In the case of “QVQLVESGGGLVQAGGSLRLSCAASGFTLSSYVMGWYRQAPGKERELVAAITSSGGSTYYADSVKGRFTISRDNAKNTVYLQMNSLKPEDTAVYYCNAVWWYKLYFDDDYWGQGTQVNVSS”, the “polyreactivity (PSR sort gate)” value is reported as “high polyreactivity”.
Turning to “KVQLVESGGGLFQAGGSLSLSCAATGSSYGGYVMGWYRQAPGKERELVASISGNGASTTYADSVKGRFTISRDNAKNTVYLQMNSLKQEDTAVYYCNARDWYIVWYEYWGQGTQVTVSS”, the “polyreactivity (PSR sort gate)” value is listed as “low polyreactivity”.
The value for “QVQLVESGGGLVQAGGSLRLSCAASGIIFPIYAMGWYRQAPGPERELVAAIDINGGRTYYADSVKGRFTISRDNAKNTVYLPMNSLKPEDTAVYYCNAEGGSYARLYGNYEYWGQGTQVTVSS” was “low polyreactivity”; that for “QVQLVESGGGLVQAGGSLRLSCAASGRIFSRNAMGWYRQAPGKERELVAAISRSGTRTNYADSVKGRFTISRDNAKYTVYLQMNSLKPEDTAVYYCATAAFIVGSSRTYDYWGQGTQVTVSS” was “high polyreactivity”.
As for “QVQLEESGGGLVQAGGSLRLSCAASGRTFYVYTMGWYRQAPRKERELFAGISYSGGSTYYADSVKGRFTISRDTAKKTVYLQKYSLKPEDTAVYYCNAELYFPYFDGKTRHGGYWGQGSQVTVSS”, the “polyreactivity (PSR sort gate)” value is listed as “low polyreactivity”.
For the sequence “QVQLVESGGGLVHAGGSLRLSCAASGRTFKVYAMGWYRQAPGKERELVASISRSGGSTYYSDSVKGRFTISRDIAKNTVFLQRNSLKPEDTAVYYCAADFCFYGSRVWEYDYWGQGTQVTVSS”, the “polyreactivity (PSR sort gate)” value is recorded as “high polyreactivity”.
For the sequence “QVQLVESGGGLVQAGGSLRLSCAASGSIFGYNVMGWYRQAPGKERELVAGITSGGSTNYADSVKGRFTISRDNAKNTVYLQMNSLKPEDTAVYYCNAEGVFGDGRSGFYWYDYWGQGTQVTVSS”, the “polyreactivity (PSR sort gate)” value is “low polyreactivity”.
For “QVQLVESGGGLVQAGGSLRLSCAASGNTITWNTMGWYRQAPGKERELVAVITSDGSTYYADSVKGRFTISRDNAKNSVYLQMNRLKPEDTSVYYCNALCAEWYPEEDYWGQGTQVTVSS”, the “polyreactivity (PSR sort gate)” value was “low polyreactivity”.
The value for “QVQLVESGGGLVQAGGSLRLSCAASGSIFRVYAMGWYRQAPGKERELVAVISIAGRTNYADSVKGRFTISRDNAKNTVYLQMNSLKPEDTAVYYCNAEWDLNHLYDSWGQGTQVTVSS” was “low polyreactivity”; that for “QVQLVESGGGLVQAGGSLRLSCAASGSIFRYYAMGWYRQAPGKERELVAAISRRGSSTYYPDSVKGRFTISRDNAKNTVYLQMNSLKPEDTAVYYCATAYRGRAWGYDYWGQGTQVTVSS” was “high polyreactivity”.
For “QVQLVESGGGLVQAGGSLRLSCAASGITFYRYALGWYRQAPGKERELVAAISSSGGSTYYADSVKGRFTISRDNAKNTVYLQMNSLKPEDTAVYYCATDSLYDYWGQGTQVTVSS”, the “polyreactivity (PSR sort gate)” value is recorded as “high polyreactivity”.
In the case of “QVQLVESGGGLVQAGGSLRLSCAASGRIFYFYAMGWYRQAPGKERELVASISYSGGNTYYADSVKGRFTISRDNAKNTVYLQMNSLKPEDTAVYYCNVLPNTGARGYYYWGQGTQVNVSS” it was “low polyreactivity”; in that of “QVQHVESGGGLVQAGGSLRLSCAASGSTLSSYAMGWSRQAPGKERELVAAINSSGGRTYYADSVKGRFTISRDNAKNTVYLKMNSVKPEDTEVYYCAATRGRYREDEDYWGQGTQVTVSS”, “high polyreactivity”; in that of “QVQLVESGGGLVQAGGSLRLSCAASGYTYRYYAMGWYRQAPGKERELVAAISASGGITYYADSVKGRFTISRDNAKNTVDLQMNCLNPEDTAVYYCATTGWGSWFDPYDYWGQGTQVTVSS”, “high polyreactivity”.
The value for “QVQLVESGGGLVQAGGSLRLSSAASGRIFAVYAMGWYRQAPGKEREFVAAISYSGGITYYADSVKGRFTISRDNAKNTVYLQMNSLKPEDTAVYYCNAYYYFWGQGTQVTVSS” was “low polyreactivity”.
Consider “QVQLVESGGGLVQAGGSLRLSCAASGSTFRGYAMGWYRQAPGKERELVAGITKRGGSTYYADSVKGRFTISRDNAKNTVYLQMNSLKPEDTAVYYCAAGKHRQAYEHDYWGQGTQVTVSS”, for which the “polyreactivity (PSR sort gate)” value is “high polyreactivity”.
In the case of “QVQLVESGGGLVQAGGSLRLSCAASGSIFNRYAMGWYRQAPGKERELVASISWRTASTYYADSVKGRFTISRDNAKNTVYLQMNSLKPEDTAVYYCAAKILGRPGYYYWGQGTQVTVSS” it was “high polyreactivity”; in that of “QVQLQESGGGLVQAGGSLRMRCAASRNISGSSDLGWYHQAPGKEREFVASITSGGTTYYADSVKGRFTISRDNAKNTVYLQMNSLKPEDTAVYYCAVGDPADAEFGYWGQGTQVTVSS”, “low polyreactivity”.
With “QVQHVESGGGLVQAGGSLRLSCAASGSIFNTYTMGWYRQAPGKERELVAAISSGGSTYYADSVKGRFSISRDNAKNTVYLHMNSLKPEDTAVYYCAAYGHSFQIYDYWGQGTQVTVSS”, the “polyreactivity (PSR sort gate)” value is “low polyreactivity”.
“QVQLVESGGGLVQAGGSLRLSCAASGRTFYRNAMGWYRQAPGKDRELVAAISSGGSTTYADSVKGRFTISRDNAKNTVFFQMNSLKPEATAVYYCAARSHAGSVSPRLKEYDYWGQGTLVTVSS”: the “polyreactivity (PSR sort gate)” value is given as “low polyreactivity”.
The value for “QVQLVESGGGLVQAGGSLRLSCAASGSIFGSNAMGWYRQAPGKERELVAAISSRAGRTYYADSVKGRFTISRDNAKNTVYLQMNSLKPEDTAVYYCAALYWVYRNRWLYDYWGLGTQVTVSS” was “high polyreactivity”.
Turning to “QVQLVESGGGLVQAGGSLRLSCAASGRIFWGYTMGWYRQAPGKERELVAAITFRGATTYYADSVKGRFTISRDNAKNTVYLQLNSLKPEDTAVYYCAKRGYASGSKWDYGYWGQGTQVTVSS”, the “polyreactivity (PSR sort gate)” value is “high polyreactivity”.
With “QVQLVESGGGLVQAGGSLRLSCAASGSIFNINAMGWYRQAPGKERELVATITSGGTASYADSVKGRFTISRDNAKNTVYLQMNSLKPEDTAVYDCNAEMYPIVKAGRQHPRRYDYWGQGTQVTVSS”, the “polyreactivity (PSR sort gate)” value was “low polyreactivity”.
